What is called Ki is a measure of affinity in units of concentration, obtained from inhibition or displacement. The low end stands for higher affinity, the high end for lower affinity.

Data set [1] has as its target T1, CHO-SST-2 (mb) (Homo sapiens, UniProt P30874).
T1 construct: expressed in transfected cells; host or cells: CHO cell membranes (mb)
Briefly: Binding to somatostatin receptor, CHO-SST-2 membranes.
Protocol: After subtraction of the non-specific binding and normalization, data obtained with [^125I][Tyr^1]-somatostatin were analyzed using the Hill equation to estimate the IC50 values.

Data set [2] concerns AR4-2J xenografted tumour. Briefly: Whole body section imaging with β-imager. In kind it is in vivo, mice. The method, then: Full Body section analysis: the mice were injected by caudal vein and sacrificed 4 hours later. For imaging, the mice were anesthesied and then immersed in an −80° C. mixture of dry ice and isopentane to prevent CNT tissue redistribution. After blocking the body in mounting medium, tissue sections (20 μm) were made at −20° C. with a slicing microtome (LEICA Microsystems, France). Sections were kept at room temperature for 2 hours in the presence of silica gel to ensure complete drying.
The quantitative determination of the radioactivity in dried tissue sections and imaging were carried out using a β-imager (Biospace Lab, Paris, France).

The test system of data set [3] is AR4-2J xenografted tumour. Conditions: mouse, in vivo.
Protocol: Females Balb/c nude mice weighing 20 g were purchased from Charles River Laboratories (L'Arbresle, France). The mice were kept in a conventional animal facility and had access ad libitum to food and drink. The experimental protocol has been approved by the local ethical committee for animal experimentation.
Mice were implanted subcutaneously with 5-6 millions AR4-2J cells freshly suspended in sterile PBS. […] After 1 h, 4 h or 24 h time period, the mice were sacrificed by ex-sanguination under anaesthesia. Organs of interest, blood and urine were collected and weighted. The radioactivity was measured with a gamma counter.
Two control experiments were also conducted.
Data set [4] is described as follows: Cysteine challenge of TcO complexes. The class given is physicochemical. The following applies: pH 7.4, 20 h, 310 K. The method, then:
A solution containing 16 μg of lyophilized TcO[UBI 29-41] (SEQ ID NO: 1) was added to 32 μl of Cysteine solution in PBS pH 7.4. Three concentrations of Cysteine solution were used: 100 mM, 15 mM and 1 mM corresponding respectively to a molar ratio Cysteine:Tc-UBI-WT of 333, 53 and 3. The samples were incubated for 20 h at 310 K prior to HPLC and ESI-MS analysis. Similar experiment was performed for TcO[TGRRR] (SEQ ID: NO 22) complex. 13 μg of lyophilized TGRRR(SEQ ID: NO 22)-TcO complex were added to 64 μl of 15 mM Cysteine solution in PBS pH 7.4 corresponding to a TcO[TGRRR] (SEQ ID: NO 22):Cysteine molar ratio of 50. This solution was incubated for 20 h at room temperature prior to HPLC analysis.
To be useful for the in vivo application of the TGRRR sequence (SEQ ID NO: 26) to label peptides or proteins, the TcO[TGRRR] (SEQ ID NO: 27) complex must be stable during 1-3 times the period of ^99mTc. The inventors evaluated the stability of the [TcO]^3+ complexes in the case of the peptide UBI-WT (SEQ ID: NO 1) and TGRRR, (peptide P13; SEQ ID NO: 26). To this end, the inventors performed a Cysteine challenge. 16 μg of the TcO[UBI-WT] was added to 1, 15, and 100 mM solutions of Cysteine at pH 7.4 corresponding respectively to molar ratio of 3, 53 and 333. These samples were incubated for 20 h at 310 K. The mixtures were analyzed by HPLC and LC-MS.

For data set [5] the following is noted: 30 equivalents of Cysteine; cited from earlier work.

Ends that are not written are not given here.

T1 sequence (P30874 whole entry): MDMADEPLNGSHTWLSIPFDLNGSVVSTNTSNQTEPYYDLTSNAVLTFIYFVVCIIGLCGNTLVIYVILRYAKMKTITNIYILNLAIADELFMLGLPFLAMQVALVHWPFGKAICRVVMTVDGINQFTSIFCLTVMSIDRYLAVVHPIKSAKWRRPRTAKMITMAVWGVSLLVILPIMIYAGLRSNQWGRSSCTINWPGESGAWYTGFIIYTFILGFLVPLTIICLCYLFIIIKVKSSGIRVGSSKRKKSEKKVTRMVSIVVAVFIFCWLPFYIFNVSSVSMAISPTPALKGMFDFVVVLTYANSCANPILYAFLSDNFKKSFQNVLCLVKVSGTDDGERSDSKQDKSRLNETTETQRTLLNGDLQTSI

Compound `CC(C)[C@@H]1NC(=O)[C@H](CCCCN)NC(=O)[C@@H](Cc2c[nH]c3ccccc23)NC(=O)[C@H](Cc2ccc(O)cc2)NC(=O)[C@@H](NC(=O)[C@@H](Cc2ccccc2)NC(=O)CNC(=O)CNC(=O)[C@H](CCCNC(=N)N)NC(=O)[C@H](CCCNC(=N)N)NC(=O)[C@H](CCCNC(=N)N)NC(=O)CNC(=O)[C@@H](N)[C@@H](C)O)CSSC[C@@H](C(=O)N[C@H](C(N)=O)[C@@H](C)O)NC1=O` displayed an inhibitory constant (Ki) in data set [1] of 0.02 nM.
Consider “TcO[HTGRRRGG-RC-121]: TcO complex of HTGRRRGG-RC-121”, for which the “radioactivity uptake in the tumour region, β-imaging of whole body section” value is reported as “important uptake of the labelled compound in this region” in data set [2] (group 1, 4 hours post injection) and “absence of radioactivity uptake” in data set [2] (group 2, 125-fold excess of RC-121, 4 hours post injection).
“TcO[HTGRRR]: [TcO]3+ complex of the TGRRR peptide (P13) (TGRRR-OH; also: TcO complex)”: in data set [3], the “Tumor/Blood Ratio” value is given as 1, the “Tumor/Muscle Ratio” value is listed as 2.6, the “radioactivity in Adrenals” value came out at 2.2 ± 4.7 % ID/g and the “radioactivity in Bile” value was found to be 6.6 ± 2.4 % ID/g. Further, in data set [3], the “radioactivity in Blood” value worked out at 0.3 ± 0.3 % ID/g, the “radioactivity in Brain” value is 0.1 ± 0.2 % ID/g, the “radioactivity in Carcass” value was determined as 0.2 ± 0.1 % ID/g and the “radioactivity in Heart” value came out at 0.7 ± 0.6 % ID/g. In addition, in data set [3], the “radioactivity in Intestines” value is reported as 1.3 ± 0.8 % ID/g, the “radioactivity in Kidneys” value is on record as 21.9 ± 9.5 % ID/g, the “radioactivity in Liver” value worked out at 2.1 ± 0.5 % ID/g and the “radioactivity in Lungs” value was found to be 0.6 ± 0.8 % ID/g. For the same compound, in data set [3], the “radioactivity in Muscle” value was 0.8 ± 1.23 % ID/g, the “radioactivity in Pancreas” value turned out to be 0.3 ± 0.6 % ID/g, the “radioactivity in Spleen” value is recorded as 0.7 ± 0.6 % ID/g and the “radioactivity in Stomach” value was 2.6 ± 2.2 % ID/g. Moreover, in data set [3], the “radioactivity in Tail” value turned out to be 5.3 ± 4.5 % ID/g and the “radioactivity in Urine” value was 8.6 ± 5.5 % ID/g. Further, the “initial [TcO]3+ complex observed” value in data set [4] (15 mM Cysteine) is listed as 57%.
Regarding “TGRAKRRMQYNRR (Ac-TGRAKRRMQYNRR-NH2) [SEQ ID NO: 1, N-acetylated, C-amidated tridecamer, residue 29 to 41 of the protein Ubiquicidine]”, the “initial [TcO]3+ complex observed” value is reported as “more than 95%” in data set [4] (1 mM Cysteine), 69% in data set [4] (15 mM Cysteine) and 10% in data set [4] (100 mM Cysteine).
For “[AGGG]TcO complex: TcO complex of the peptide AGGG (SEQ ID NO: 31), from the literature (also: TcO complex)”, the “stability against Cysteine” value in data set [5] is reported as “completely unstable”.
